For orientation: Kd means the constant that tells how readily two partners part at equilibrium.

The series deals with native human alpha-thrombin (Homo sapiens, UniProt P00734;P00734 328-363;364-622). Nature of the series: ITC; ITC: 20 mM HEPES-NaOH, 150 mM NaCl, 5 mM KCl, 2 mM MgCl2, 1 mM CaCl2, pH 7.4, 25 C; EMSA: same plus 0.05% Tween 20 and 10% glycerol, room temperature 30 min, ge. (In general: In ITC the heat of successive injections is recorded.)

As to GATGAACTTGTTGAAACCCAACGGGAGAATCGTTCATT (structured_DNA, natural D-DNA) [D-L-9-2t], the binding result is “no binding”.
On the same count and under the same terms, the result for ACGGAACGCGTTTCAAGACTACCGTGTTTGTTCCGT (structured_DNA, natural D-DNA) [D-L-9-1t] reads “no binding”.

B1: D-6 aptamer (structured_DNA)
DNA: CGGATCCAGTTACGGAACTGAACAGAAGGGTGGTGTGGTTGGACTGTTCATTCAGTAAGCTTCGG
For B1, the equilibrium dissociation constant (Kd) was 27 nM.

The values above are taken from article PMC9646512, “Directed evolution and selection of biostable l-DNA aptamers with a mirror-image DNA polymerase”.
